Results: US12618845B2, “Methods and compositions for protein sequencing” (Quantum-Si Incorporated, priority 2018, dated 2026)
Where two headings read alike, the source gives them in different places.

System: peptide substrates
Assay type: biochemical

Measured: HPLC Assay Conv

B1: VPr: Vibrio proteolyticus aminopeptidase (protein)
chain: MPPITQQATVTAWLPQVDASQITGTISSLESFTNRFYTTTSGAQASDWIASEWQALSASLPNASVKQVSHSGYNQKSVVMTITGSEAPDEWIVIGGHLDSTIGSHTNEQSVAPGADDDASGIAAVTEVIRVLSENNFQPKRSIAFMAYAAEEVGLRGSQDLANQYKSEGKNVVSALQLDMTNYKGSAQDVVFITDYTDSNFTQYLTQLMDEYLPSLTYGFDTCGYACSDHASWHNAGYPAAMPFESKFNDYNPRIHTTQDTLANSDPTGSHAKKFTQLGLAYAIEMGSATGDTPTPGNQ
32%: substrate KKPFQQ (SEQ ID NO: 120), 1 mM Peptide, 1 μM enzyme, 10 mM Mg(OAc)2, 50 mM MOPS pH 8, 60 mM KOAc, RT/0.5 hr
48%: substrate SSPFQQ (SEQ ID NO: 140), 1 mM Peptide, 1 μM enzyme, 10 mM Mg(OAc)2, 50 mM MOPS pH 8, 60 mM KOAc, RT/0.5 hr
2.70%: substrate […]{LYSN3}NH2 (SEQ ID NO: 107), 1200 μM Peptide, 800 pM enzyme, 10 mM Mg(OAc)2, 50 mM MOPS pH 7.5, RT/0.5 hr
15%: substrate NNPFQQ (SEQ ID NO: 130), 1 mM Peptide, 1 μM enzyme, 10 mM Mg(OAc)2, 50 mM MOPS pH 8, 60 mM KOAc, RT/0.5 hr
5%: substrate […]1 (SEQ ID NO: 11), 600 μM Peptide, 0.08 μM enzyme, 10 mM 5Mg(OAc)2, 0 mM MOPS pH 8, 60 mM KOAc, RT/0.5 hr | substrate […]1 (SEQ ID NO: 13), 300 μM Peptide, 8 μM enzyme, RB2 + Mg, RT/0.5 hr
82%: substrate WWPFQQ (SEQ ID NO: 146), 1 mM Peptide, 1 μM enzyme, 10 mM Mg(OAc)2, 50 mM MOPS pH 8, 60 mM KOAc, RT/0.5 hr
66%: substrate QQPFQQ (SEQ ID NO: 132), 1 mM Peptide, 1 μM enzyme, 10 mM Mg(OAc)2, 50 mM MOPS pH 8, 60 mM KOAc, RT/0.5 hr
50%: substrate YYPYYP{LYSN3}NH2 (SEQ ID NO: 92), 1 mM peptide, 2 mM enzyme, 2.5 mM ZnCl2, 25 mM Tris pH 8.0, 30° C./1 hr | substrate […]1 (SEQ ID NO: 11), 600 μM Peptide, 0.8 μM enzyme, 10 mM Mg(OAc)2, 50 mM MOPS pH 8, 60 mM KOAc, RT/0.5 hr | substrate […]{LYSN3}NH2 (SEQ ID NO: 107), 1200 μM Peptide, 0.08 μM enzyme, 10 mM Mg(OAc)2, 50 mM MOPS pH 5.5, RT/0.5 hr
12%: substrate HHPFQQ (SEQ ID NO: 154), 1 mM Peptide, 1 μM enzyme, 10 mM Mg(OAc)2, 50 mM MOPS pH 8, 60 mM KOAc, RT/0.5 hr
56%: substrate QP15 […]{LYSN3}NH2 (SEQ ID NO: 107), 1200 μM Peptide, 0.008 μM enzyme, 10 mM Mg(OAc)2, 50 mM MOPS pH 6.5, RT/0.5 hr | substrate YYPFQQ (SEQ ID NO: 122), 1 mM Peptide, 1 μM enzyme, 10 mM Mg(OAc)2, 50 mM MOPS pH 8, 60 mM KOAc, RT/0.5 hr
8%: substrate GGPFQQ (SEQ ID NO: 152), 1 mM Peptide, 1 μM enzyme, 10 mM Mg(OAc)2, 50 mM MOPS pH 8, 60 mM KOAc, RT/0.5 hr
79%: substrate RRPFQQ (SEQ ID NO: 116), 1 mM Peptide, 1 μM enzyme, 10 mM Mg(OAc)2, 50 mM MOPS pH 8, 60 mM KOAc, RT/0.5 hr
30%: substrate […]1 (SEQ ID NO: 13), 300 μM Peptide, 8 μM enzyme, 50/50 MOPS Mg buffer/RB1, RT/0.5 hr
1.40%: substrate QP15 […]{LYSN3}NH2 (SEQ ID NO: 107), 1200 μM Peptide, 0.008 μM enzyme, 10 mM Mg(OAc)2, 50 mM MOPS pH 5.5, RT/0.5 hr
6.80%: substrate […]{LYSN3}NH2 (SEQ ID NO: 107), 1200 μM Peptide, 800 pM enzyme, 10 mM Mg(OAc)2, 50 mM MOPS pH 8.5, RT/0.5 hr
100%: substrate AAMAAM{LYSN3}NH2 (SEQ ID NO: 74), 1 mM peptide, 2 mM enzyme, 2.5 mM ZnCl2, 25 mM Tris pH 8.0, 30° C./1 hr | substrate AAPAAP{LYSN3}NH2 (SEQ ID NO: 98), 1 mM peptide, 2 mM enzyme, 2.5 mM ZnCl2, 25 mM Tris pH 8.0, 30° C./1 hr | substrate AAPFQQ (SEQ ID NO: 118), 1 mM Peptide, 1 μM enzyme, 10 mM Mg(OAc)2, 50 mM MOPS pH 8, 60 mM KOAc, RT/0.5 hr | substrate FFPFFP{LYSN3}NH2 (SEQ ID NO: 94), 1 mM peptide, 2 mM enzyme, 2.5 mM ZnCl2, 25 mM Tris pH 8.0, 30° C./1 hr | substrate FFPFQQ (SEQ ID NO: 124), 1 mM Peptide, 1 μM enzyme, 10 mM Mg(OAc)2, 50 mM MOPS pH 8, 60 mM KOAc, RT/0.5 hr | substrate IIPFQQ (SEQ ID NO: 136), 1 mM Peptide, 1 μM enzyme, 10 mM Mg(OAc)2, 50 mM MOPS pH 8, 60 mM KOAc, RT/0.5 hr | substrate KKMKKM{LYSN3}NH2 (SEQ ID NO: 89), 1 mM peptide, 2 mM enzyme, 2.5 mM ZnCl2, 25 mM Tris pH 8.0, 30° C./1 hr | substrate KKPKKP{LYSN3}NH2 (SEQ ID NO: 100), 1 mM peptide, 2 mM enzyme, 2.5 mM ZnCl2, 25 mM Tris pH 8.0, 30° C./1 hr | substrate LLPFQQ (SEQ ID NO: 138), 1 mM Peptide, 1 μM enzyme, 10 mM Mg(OAc)2, 50 mM MOPS pH 8, 60 mM KOAc, RT/0.5 hr | substrate MMPFQQ (SEQ ID NO: 148), 1 mM Peptide, 1 μM enzyme, 10 mM Mg(OAc)2, 50 mM MOPS pH 8, 60 mM KOAc, RT/0.5 hr | substrate QP5-Atto649N ([…]{LYSN3}NH2) (SEQ ID NO: 106), 37 μM Peptide, 8 μM Enzyme, 2.5 mM ZnCl2, 25 mM Tris pH 8.0, 37° C./0.5 hr | substrate RRPRRP{LYSN3}NH2 (SEQ ID NO: 96), 1 mM peptide, 2 mM enzyme, 2.5 mM ZnCl2, 25 mM Tris pH 8.0, 30° C./1 hr | substrate TTPFQQ (SEQ ID NO: 142), 1 mM Peptide, 1 μM enzyme, 10 mM Mg(OAc)2, 50 mM MOPS pH 8, 60 mM KOAc, RT/0.5 hr | substrate VVPFQQ (SEQ ID NO: 134), 1 mM Peptide, 1 μM enzyme, 10 mM Mg(OAc)2, 50 mM MOPS pH 8, 60 mM KOAc, RT/0.5 hr | substrate […]1 (SEQ ID NO: 11), 600 μM Peptide, 8 μM enzyme, 10 mM Mg(OAc)2, 50 mM MOPS pH 8, 60 mM KOAc, RT/0.5 hr | substrate […]1 (SEQ ID NO: 11), 600 μM Peptide, 8 μM enzyme, 10 mM Mg(OAc)2, 50 mM MOPS pH 8, RT/0.5 hr | substrate […]1 (SEQ ID NO: 13), 300 μM Peptide, 8 μM enzyme, 10 mM Mg(OAc)2, 50 mM MOPS pH 8, 60 mM KOAc, 37° C./2 hr | substrate […]1 (SEQ ID NO: 13), 300 μM Peptide, 8 μM enzyme, 10 mM Mg(OAc)2, 50 mM MOPS pH 8, 60 mM KOAc, RT/2 hr | substrate […]1 (SEQ ID NO: 13), 300 μM Peptide, 8 μM enzyme, 10 mM Mg(OAc)2, 50 mM MOPS pH 8, 0.2% Tween20, RT/0.5 hr | substrate […]1 (SEQ ID NO: 13), 300 μM Peptide, 8 μM enzyme, 10 mM Mg(OAc)2, 50 mM MOPS pH 8, RT/0.5 hr | substrate […]1 (SEQ ID NO: 13), 300 μM Peptide, 8 μM enzyme, RB4, RT/0.5 hr | substrate […]1 (SEQ ID NO: 13), 600 μM Peptide, 8 μM enzyme, 10 mM Mg(OAc)2, 50 mM MOPS pH 8, RT/0.5 hr | substrate […]{LYSN3}NH2 (SEQ ID NO: 107), 200 μM Peptide, 4 μM enzyme, 10 mM MgCl2, 50 mM MOPS pH 8.0, 37° C./0.5 hr | substrate […]{LYSN3}NH2 (SEQ ID NO: 107), 200 μM Peptide, 4 μM enzyme, 10 mM MgCl2, 50 mM MOPS pH 8.0, 37° C./1 hr | substrate […]{LYSN3}NH2 (SEQ ID NO: 107), 200 μM Peptide, 8 μM enzyme, 10 mM MgCl2, 50 mM MOPS pH 5.0, RT/0.5 hr | substrate […]{LYSN3}NH2 (SEQ ID NO: 107), 200 μM Peptide, 8 μM enzyme, 10 mM MgCl2, 50 mM MOPS pH 5.0, RT/1 hr | substrate […]{LYSN3}NH2 (SEQ ID NO: 107), 300 μM Peptide, 4 μM enzyme, 10 mM MgCl2, 50 mM MOPS pH 8.0, 37° C./0.5 hr | substrate […]{LYSN3}NH2 (SEQ ID NO: 107), 400 μM Peptide, 8 μM enzyme, 50 mM HEPES pH 8.0, 300 mM NaCl, 1 mM DTT, 5% Glycerol, 32 mM PCA, 37° C./1 hr | substrate […]{LYSN3}NH2 (SEQ ID NO: 107), 600 μM Peptide, 0.8 μM enzyme, 10 mM Mg(OAc)2, 50 mM MOPS pH 5.5, RT/0.5 hr | substrate […]{LYSN3}NH2 (SEQ ID NO: 107), 600 μM Peptide, 0.8 μM enzyme, 10 mM Mg(OAc)2, 50 mM MOPS pH 6.5, RT/0.5 hr | substrate […]{LYSN3}NH2 (SEQ ID NO: 107), 600 μM Peptide, 0.8 μM enzyme, 10 mM Mg(OAc)2, 50 mM MOPS pH 7.5, RT/0.5 hr | substrate […]{LYSN3}NH2 (SEQ ID NO: 107), 600 μM Peptide, 0.8 μM enzyme, 10 mM Mg(OAc)2, 50 mM MOPS pH 8.5, RT/0.5 hr | substrate […]{LYSN3}NH2 (SEQ ID NO: 107), 1200 μM Peptide, 0.008 μM enzyme, 10 mM Mg(OAc)2, 50 mM MOPS pH 7.5, RT/0.5 hr | substrate […]{LYSN3}NH2 (SEQ ID NO: 107), 1200 μM Peptide, 0.008 μM enzyme, 10 mM Mg(OAc)2, 50 mM MOPS pH 8.5, RT/0.5 hr | substrate […]{LYSN3}NH2 (SEQ ID NO: 107), 1200 μM Peptide, 0.08 μM enzyme, 10 mM Mg(OAc)2, 50 mM MOPS pH 6.5, RT/0.5 hr | substrate […]{LYSN3}NH2 (SEQ ID NO: 107), 1200 μM Peptide, 0.08 μM enzyme, 10 mM Mg(OAc)2, 50 mM MOPS pH 7.5, RT/0.5 hr | substrate […]{LYSN3}NH2 (SEQ ID NO: 109), 300 μM Peptide, 4 μM enzyme, 10 mM MgCl2, 50 mM MOPS pH 8.0, 37° C./0.5 hr | substrate […]{LYSN3}NH2 (SEQ ID NO: X), 1200 μM Peptide, 0.08 μM enzyme, 10 mM Mg(OAc)2, 50 mM MOPS pH 8.5, RT/0.5 hr
>90%: substrate YYMYYM{LYSN3}NH2 (SEQ ID NO: 103), 1 mM peptide, 2 mM enzyme, 2.5 mM ZnCl2, 25 mM Tris pH 8.0, 30° C./1 hr
0%: substrate DDPFQQ (SEQ ID NO: 126), 1 mM Peptide, 1 uM enzyme, 10 mM Mg(OAc)2, 50 mM MOPS pH 8, 60 mM KOAc, RT/0.5 hr | substrate EEPFQQ (SEQ ID NO: 128), 1 mM Peptide, 1 uM enzyme, 10 mM Mg(OAc)2, 50 mM MOPS pH 8, 60 mM KOAc, RT/0.5 hr | substrate PPPFQQ (SEQ ID NO: 150), 1 mM Peptide, 1 μM enzyme, 10 mM Mg(OAc)2, 50 mM MOPS pH 8, 60 mM KOAc, RT/0.5 hr
70%: substrate CCPFQQ (SEQ ID NO: 144), 1 mM Peptide, 1 μM enzyme, 10 mM Mg(OAc)2, 50 mM MOPS pH 8, 60 mM KOAc, RT/0.5 hr | substrate […]1 (SEQ ID NO: 13), 300 μM Peptide, 8 μM enzyme, 10 mM Mg(OAc)2, 50 mM MOPS pH 8, 60 mM KOAc, RT/0.5 hr
